Measured values published in patent US20160200791A1 (Novo Nordisk, published 2016).
Numbered stars: 1 amine (or outer) side, 2 acyl side, 3 side chain; on linkers, the order of the positions; unused ones are H or OH. Square brackets hold non-standard residues; d marks the D form. Side chains are listed from the residue outwards. Ends that are not written are not given here. * marks the point of attachment. Hexadecanoyl(16-SO3H) = O=C(CCCCCCCCCCCCCCCS(=O)(=O)O)*; C20 diacid = O=C(O)CCCCCCCCCCCCCCCCCCC(=O)*; C18 diacid = O=C(O)CCCCCCCCCCCCCCCCC(=O)*; γGlu = O=C(O)[C@H](CCC(=O)[*:2])N[*:1]; εLys = N[C@@H](CCCCN[*:1])C(=O)[*:2]; Cya = N[C@@H](CS(=O)(=O)O)C(=O)O; Trx = NC[C@H]1CC[C@H](C(=O)O)CC1; AEEA = NCCOCCOCC(=O)O; Aib = CC(C)(N)C(=O)O; Ahx = NCCCCCC(=O)O; GABA = NCCCC(=O)O

How the values were obtained:
human GLP-1 receptor [1] = molecular target: T1, human GLP-1 receptor (human, UniProt P43220 24-463); assay: cell-based or functional assay
human GLP-1 receptor [2] = molecular target: T1, human GLP-1 receptor; assay: competitive SPA binding, displacement of 125I-GLP-1(7-36)NH2 from BHK membranes with human GLP-1R, high HSA (2.0%)
Protocol: (§1) For the receptor binding assay in the presence of low HSA (0.005%) 50 μl of the assay buffer was added to each well of an assay plate. Assay continued with step 3. […] For the receptor binding assay in the presence of high HSA (2%) 50 μl of the 8% albumin stock was added to each well of an assay plate. Assay continued with step 3. […] Cell membrane aliquots were thawed and diluted to their working concentration. Fifty μl were added to each well in the assay plate. […] WGA SPA beads were suspended in assay buffer at 20 mg/ml. The suspension was diluted to 10 mg/ml in assay buffer just prior to addition to the assay plate. Fifty μl were added to each well in the assay plate. […] A 25 μl aliquot was reserved for measuring total counts/well. […] The assay plate was incubated for 2 h at 30° C. […] The assay plate was centrifuged for 10 min. […] The assay plate was read in a Packard TopCount NXT instrument.

human GLP-1 receptor [3] = molecular target: T1, human GLP-1 receptor; assay: competitive SPA binding, displacement of 125I-GLP-1(7-36)NH2 from BHK membranes with human GLP-1R, low HSA (max. 0.001%)
Protocol: as §1

Row | Binder | In vitro potency EC50 (CRE luciferase reporter gene assay, BHK cells) (human GLP-1 receptor [1]) [nM] | IC50 (human GLP-1 receptor [2]) [nM] | IC50 (human GLP-1 receptor [3]) [nM]
1 | H[Aib]EGTFTSDVSK([εLys-AEEA-AEEA-γGlu-C18 diacid])YLEEQAARK([εLys-AEEA-AEEA-γGlu-C18 diacid])FIAWLVRGRK([εLys-AEEA-AEEA-γGlu-C18 diacid]) (Full chemical name printed at h-0062 (it prints 'Lys8' where Lys18 is meant)) | 0.012 | > 1000 | 0.4
2 | H[Aib]EGTFTSDVSK([AEEA-AEEA-εLys-εLys-Hexadecanoyl(16-SO3H)])YLEK([AEEA-AEEA-εLys-εLys-Hexadecanoyl(16-SO3H)])QAAREFIK([AEEA-AEEA-εLys-εLys-Hexadecanoyl(16-SO3H)])WLVRGRG (Full chemical name printed at h-0078) | 0.018 | 100 | 0.19
3 | H[Aib]EGTFTSDVSK([AEEA-AEEA-AEEA-AEEA-εLys-εLys-GABA-Hexadecanoyl(16-SO3H)])YLEK([AEEA-AEEA-AEEA-AEEA-εLys-εLys-GABA-Hexadecanoyl(16-SO3H)])QAAREFIK([AEEA-AEEA-AEEA-AEEA-εLys-εLys-GABA-Hexadecanoyl(16-SO3H)])WLVRGRG (Full chemical name printed at h-0086) | 0.116 | 19 | 0.1
4 | H[Aib]EGTFTSDVSK([AEEA-AEEA-γGlu-C18 diacid])YLEEQAARK([AEEA-AEEA-γGlu-C18 diacid])FIAWLVRGRK([AEEA-AEEA-γGlu-C18 diacid]) (Full chemical name printed at h-0060) | 0.04 | > 1000 | 0.6
5 | H[Aib]EGTFTSDVSSYLEEQAAK([εLys-AEEA-AEEA-Cya-Hexadecanoyl(16-SO3H)])EFIK([εLys-AEEA-AEEA-Cya-Hexadecanoyl(16-SO3H)])WLVRGRK([εLys-AEEA-AEEA-Cya-Hexadecanoyl(16-SO3H)]) (Full chemical name printed at h-0074) | 0.099 | 214 | 5
6 | H[Aib]EGTFTSDVSSYLEEQAAK([εLys-AEEA-AEEA-γGlu-C18 diacid])EFIK([εLys-AEEA-AEEA-γGlu-C18 diacid])WLVRGRK([εLys-AEEA-AEEA-γGlu-C18 diacid]) (Full chemical name printed at h-0072) | 0.085 | > 1000 | 8.7
7 | H[Aib]EGTFTSDVSK([Ser-Ser-Ser-Ser-Ser-Ser-γGlu-C18 diacid])YLEGQAARK([Ser-Ser-Ser-Ser-Ser-Ser-γGlu-C18 diacid])FIAWLVRGRK([Ser-Ser-Ser-Ser-Ser-Ser-γGlu-C18 diacid]) (Full chemical name printed at h-0068) | 0.067 | > 1000 | 
8 | H[Aib]EGTFTSDVSSYLEEQAARK([AEEA-AEEA-γGlu-C18 diacid])FIK([AEEA-AEEA-γGlu-C18 diacid])WLVRGRK([AEEA-AEEA-γGlu-C18 diacid]) (Full chemical name printed at h-0070) | 0.026 | 188 | 0.82
9 | H[Aib]EGTFTSDVSK([AEEA-γGlu-AEEA-C18 diacid])YLEEQAARK([AEEA-γGlu-AEEA-C18 diacid])FIAWLVRGRK([AEEA-γGlu-AEEA-C18 diacid]) (Full chemical name printed at h-0064) | 0.076 | > 1000 | 0.7
10 | H[Aib]EGTFTSDVSK([AEEA-AEEA-AEEA-AEEA-AEEA-εLys-εLys-C20 diacid])YLEK([AEEA-AEEA-AEEA-AEEA-AEEA-εLys-εLys-C20 diacid])QAAREFIK([AEEA-AEEA-AEEA-AEEA-AEEA-εLys-εLys-C20 diacid])WLVRGRG (Full chemical name printed at h-0080) | 0.082 | 426 | 11
11 | H[Aib]EGTFTSDVSK([AEEA-AEEA-Cya-Trx-Hexadecanoyl(16-SO3H)])YLEK([AEEA-AEEA-Cya-Trx-Hexadecanoyl(16-SO3H)])QAAREFIK([AEEA-AEEA-Cya-Trx-Hexadecanoyl(16-SO3H)])WLVRGRG (Full chemical name printed at h-0058 (it prints 'Lys8' where Lys18 is meant)) | 0.014 | 351 | 1.6
12 | H[Aib]EGTFTSDVSK([AEEA-AEEA-AEEA-AEEA-AEEA-εLys-εLys-C18 diacid])YLEK([AEEA-AEEA-AEEA-AEEA-AEEA-εLys-εLys-C18 diacid])QAAREFIK([AEEA-AEEA-AEEA-AEEA-AEEA-εLys-εLys-C18 diacid])WLVRGRG (Full chemical name printed at h-0082) | 0.014 | 381 | 0.4
13 | H[Aib]EGTFTSDVSK([AEEA-AEEA-AEEA-AEEA-AEEA-εLys-εLys-Ahx-Hexadecanoyl(16-SO3H)])YLEK([AEEA-AEEA-AEEA-AEEA-AEEA-εLys-εLys-Ahx-Hexadecanoyl(16-SO3H)])QAAREFIK([AEEA-AEEA-AEEA-AEEA-AEEA-εLys-εLys-Ahx-Hexadecanoyl(16-SO3H)])WLVRGRG (Full chemical name printed at h-0090) | 0.027 | 100 | 0.36
14 | H[Aib]EGTFTSDVSK([AEEA-AEEA-εLys-Hexadecanoyl(16-SO3H)])YLEK([AEEA-AEEA-εLys-Hexadecanoyl(16-SO3H)])QAAREFIK([AEEA-AEEA-εLys-Hexadecanoyl(16-SO3H)])WLVRGRG (Full chemical name printed at h-0076) | 0.026 | 84 | 0.23
15 | H[Aib]EGTFTSDVSK([AEEA-AEEA-Cya-Hexadecanoyl(16-SO3H)])YLEK([AEEA-AEEA-Cya-Hexadecanoyl(16-SO3H)])QAAREFIK([AEEA-AEEA-Cya-Hexadecanoyl(16-SO3H)])WLVRGRG (Full chemical name printed at h-0054) | 0.02 | 290 | 1.4
16 | H[Aib]EGTFTSDVSK([AEEA-AEEA-γGlu-Trx-Hexadecanoyl(16-SO3H)])YLEK([AEEA-AEEA-γGlu-Trx-Hexadecanoyl(16-SO3H)])QAAREFIK([AEEA-AEEA-γGlu-Trx-Hexadecanoyl(16-SO3H)])WLVRGRG (Full chemical name printed at h-0052) | 0.067 | 289 | 2.3
17 | H[Aib]EGTFTSDVSK([AEEA-AEEA-AEEA-AEEA-AEEA-εLys-εLys-εLys-C18 diacid])YLEK([AEEA-AEEA-AEEA-AEEA-AEEA-εLys-εLys-εLys-C18 diacid])QAAREFIK([AEEA-AEEA-AEEA-AEEA-AEEA-εLys-εLys-εLys-C18 diacid])WLVRGRG (Full chemical name printed at h-0084) | 0.018 | 143 | 0.08
18 | H[Aib]EGTFTSDVSK([AEEA-AEEA-AEEA-AEEA-AEEA-εLys-εLys-GABA-Hexadecanoyl(16-SO3H)])YLEK([AEEA-AEEA-AEEA-AEEA-AEEA-εLys-εLys-GABA-Hexadecanoyl(16-SO3H)])QAAREFIK([AEEA-AEEA-AEEA-AEEA-AEEA-εLys-εLys-GABA-Hexadecanoyl(16-SO3H)])WLVRGRG (Full chemical name printed at h-0092) | 0.015 | 96 | 0.24
19 | H[Aib]EGTFTSDVSK([AEEA-AEEA-AEEA-AEEA-εLys-εLys-Ahx-Hexadecanoyl(16-SO3H)])YLEK([AEEA-AEEA-AEEA-AEEA-εLys-εLys-Ahx-Hexadecanoyl(16-SO3H)])QAAREFIK([AEEA-AEEA-AEEA-AEEA-εLys-εLys-Ahx-Hexadecanoyl(16-SO3H)])WLVRGRG (Full chemical name printed at h-0088; the printed name is uneven in the number of OEG units for the side chains at 18 and 22 (four opened, three closed)) | 0.019 | 49 | 0.15
